Measured values taken from patent US20070101449A1.
“And” between values parts separate entries of the source, which are not always exact repeats. Identical values can stand only once.

Assays:
[1] = target: APP695-derived polypeptide carrying the Swedish mutant NLDA at the β secretase cleavage site (UniProt P05067); assay: cell-based or functional assay
[2] = target: APP695-derived polypeptide having the modified sequence NFEV at the β secretase cleavage site (UniProt P05067); assay: cell-based or functional assay

## human β secretase (from UniProt P56817 46-501) (enzyme)
[1]
  levels of Aβ (IP/Western blot of conditioned media of transfected HEK293T cells) (fold over wild-type KMDA): 15 and 20
[2]
  levels of Aβ (IP/Western blot of conditioned media of transfected HEK293T cells) (fold over wild-type KMDA): 15 and 20
